{"source": "patent US20250019439A1", "about": "(Adimab, published 2025)", "key": {"ADI-22523 Fab": {"biological_target": "T1, ADI-22523 Fab", "T1 construct": "anti-CD3 Fab by papain digestion of the IgG", "T1 sequence (VH, as listed by the source limits assumed, chain 1 of 2)": "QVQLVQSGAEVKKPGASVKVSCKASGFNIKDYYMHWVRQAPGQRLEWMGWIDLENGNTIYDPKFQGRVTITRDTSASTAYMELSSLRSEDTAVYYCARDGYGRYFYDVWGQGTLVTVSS", "T1 sequence (VL, as listed by the source limits assumed, chain 2 of 2)": "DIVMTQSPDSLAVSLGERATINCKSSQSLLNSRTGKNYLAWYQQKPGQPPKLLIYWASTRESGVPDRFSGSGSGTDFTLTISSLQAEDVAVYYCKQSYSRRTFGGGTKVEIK", "assay": "BLI; tip anti-ID IgG, solution ADI-22523 Fab", "procedure,_shortened": "(§1)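 Bio-layer interferometry with anti-ID IgG loaded on AHC tips. KD (koff/kon) from 1:1 binding model fit; avid format.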"}, "ADI-76360": {"biological_target": "T2, ADI-76360", "T2 construct": "anti-CD3 antibody made in CHO cells, captured by anti-human Fc", "assay": "SPR Carterra avidity, yeast anti-ID", "procedure,_shortened": "(§2)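 Measured at 25° C in HBSTE running buffer on a Carterra LSA; anti-CD3 antibodies (100 nM) were captured for 5 min on an amine-coupled goat anti-human Fc HC30M chip. Anti-idiotype dissociation was followed for 300s, and double-referenced sensorgrams were fitted to a 1:1 binding model.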"}, "ADI-26919": {"biological_target": "T3, ADI-26919", "T3 construct": "anti-CD3 antibody made in CHO cells, captured by anti-human Fc", "T3 sequence (VH, as listed by the source limits assumed, chain 1 of 2)": "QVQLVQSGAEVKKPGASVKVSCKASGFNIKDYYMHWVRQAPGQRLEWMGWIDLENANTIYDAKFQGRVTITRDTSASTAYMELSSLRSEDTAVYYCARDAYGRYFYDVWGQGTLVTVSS", "T3 sequence (VL, as listed by the source limits assumed, chain 2 of 2)": "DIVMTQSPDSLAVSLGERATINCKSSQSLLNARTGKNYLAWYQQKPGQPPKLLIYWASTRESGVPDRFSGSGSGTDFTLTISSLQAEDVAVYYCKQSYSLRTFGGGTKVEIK", "assay": "SPR Carterra avidity, yeast anti-ID", "procedure,_shortened": "as §2"}, "ADI-70330": {"biological_target": "T4, ADI-70330", "T4 construct": "anti-CD3 antibody made in CHO cells, captured by anti-human Fc", "T4 sequence (VH, as listed by the source limits assumed, chain 1 of 2)": "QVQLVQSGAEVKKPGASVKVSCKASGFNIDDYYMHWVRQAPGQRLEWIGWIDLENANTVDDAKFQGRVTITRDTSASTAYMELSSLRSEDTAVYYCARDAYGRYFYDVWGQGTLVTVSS", "T4 sequence (VL, as listed by the source limits assumed, chain 2 of 2)": "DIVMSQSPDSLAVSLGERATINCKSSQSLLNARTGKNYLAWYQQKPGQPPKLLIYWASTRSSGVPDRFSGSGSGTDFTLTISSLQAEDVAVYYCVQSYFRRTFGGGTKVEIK", "assay": "SPR Carterra avidity, yeast anti-ID", "procedure,_shortened": "as §2"}, "ADI-76357": {"biological_target": "T5, ADI-76357", "T5 construct": "anti-CD3 antibody made in CHO cells, captured by anti-human Fc", "T5 sequence (VH, as listed by the source, chain 1 of 2)": "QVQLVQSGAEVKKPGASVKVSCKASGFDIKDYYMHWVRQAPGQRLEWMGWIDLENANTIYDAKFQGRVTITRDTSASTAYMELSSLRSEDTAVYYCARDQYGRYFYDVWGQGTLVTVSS", "T5 sequence (VL, as listed by the source, chain 2 of 2)": "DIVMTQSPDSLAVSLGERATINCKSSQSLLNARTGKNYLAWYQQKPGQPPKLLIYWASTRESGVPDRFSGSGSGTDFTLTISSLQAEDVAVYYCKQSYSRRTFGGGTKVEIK", "assay": "SPR Carterra avidity, yeast anti-ID", "procedure,_shortened": "as §2"}, "ADI-76358": {"biological_target": "T6, ADI-76358", "T6 construct": "anti-CD3 antibody made in CHO cells, captured by anti-human Fc", "assay": "SPR Carterra avidity, yeast anti-ID", "procedure,_shortened": "as §2"}, "ADI-70327": {"biological_target": "T7, ADI-70327", "T7 construct": "anti-CD3 antibody made in CHO cells, captured by anti-human Fc", "T7 sequence (VH, as listed by the source limits assumed, chain 1 of 2)": "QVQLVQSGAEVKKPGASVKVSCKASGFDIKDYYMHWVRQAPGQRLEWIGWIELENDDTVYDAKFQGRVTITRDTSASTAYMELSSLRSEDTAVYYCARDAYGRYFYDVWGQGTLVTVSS", "assay": "SPR Carterra avidity, yeast anti-ID", "procedure,_shortened": "as §2"}, "ADI-26916 IgG": {"biological_target": "T8, ADI-26916 IgG", "T8 construct": "anti-CD3 IgG", "assay": "SPR Carterra avidity, yeast anti-ID", "procedure,_shortened": "as §2"}, "ADI-26906 IgG": {"biological_target": "T9, ADI-26906 IgG", "T9 construct": "anti-CD3 IgG", "assay": "SPR Carterra avidity, yeast anti-ID", "procedure,_shortened": "as §2"}, "ADI-48587": {"biological_target": "T10, ADI-48587", "T10 construct": "pH-dependent anti-CD3 antibody made in CHO cells", "assay": "SPR Carterra avidity, yeast anti-ID", "procedure,_shortened": "as §2"}, "ADI-48650": {"biological_target": "T11, ADI-48650", "T11 construct": "pH-dependent anti-CD3 antibody made in CHO cells", "assay": "SPR Carterra avidity, yeast anti-ID", "procedure,_shortened": "as §2"}, "ADI-48576": {"biological_target": "T12, ADI-48576", "T12 construct": "pH-dependent anti-CD3 antibody made in CHO cells", "T12 sequence (VH, as listed by the source, chain 1 of 2)": "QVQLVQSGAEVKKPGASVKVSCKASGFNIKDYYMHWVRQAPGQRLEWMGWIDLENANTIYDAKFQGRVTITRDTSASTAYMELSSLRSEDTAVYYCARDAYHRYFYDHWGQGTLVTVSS", "T12 sequence (VL, as listed by the source, chain 2 of 2)": "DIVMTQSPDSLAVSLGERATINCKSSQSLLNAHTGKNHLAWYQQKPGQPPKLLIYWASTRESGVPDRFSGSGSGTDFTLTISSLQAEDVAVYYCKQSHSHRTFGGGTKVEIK", "assay": "SPR Carterra avidity, yeast anti-ID", "procedure,_shortened": "as §2"}, "ADI-70326": {"biological_target": "T13, ADI-70326", "T13 construct": "anti-CD3 antibody made in CHO cells, captured by anti-human Fc", "assay": "SPR Carterra avidity, yeast anti-ID", "procedure,_shortened": "as §2"}, "ADI-74965": {"biological_target": "T14, ADI-74965", "T14 construct": "pH-dependent anti-CD3 antibody made in CHO cells", "assay": "SPR Carterra avidity, yeast anti-ID", "procedure,_shortened": "as §2"}, "CTL-62223": {"biological_target": "T15, CTL-62223", "T15 construct": "also called mosunetuzumab", "T15 sequence (VH, as listed by the source, chain 1 of 2)": "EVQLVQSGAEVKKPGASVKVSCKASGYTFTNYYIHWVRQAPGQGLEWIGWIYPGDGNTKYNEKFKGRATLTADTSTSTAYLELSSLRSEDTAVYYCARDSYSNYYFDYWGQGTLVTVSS", "T15 sequence (VL, as listed by the source, chain 2 of 2)": "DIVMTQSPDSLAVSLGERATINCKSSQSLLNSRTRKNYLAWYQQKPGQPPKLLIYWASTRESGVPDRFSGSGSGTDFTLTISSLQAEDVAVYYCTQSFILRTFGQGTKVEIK", "assay": "SPR Carterra avidity, yeast anti-ID", "procedure,_shortened": "as §2"}, "ADI-48592": {"biological_target": "T16, ADI-48592", "T16 construct": "pH-dependent anti-CD3 antibody made in CHO cells", "T16 sequence (VH, as listed by the source, chain 1 of 2)": "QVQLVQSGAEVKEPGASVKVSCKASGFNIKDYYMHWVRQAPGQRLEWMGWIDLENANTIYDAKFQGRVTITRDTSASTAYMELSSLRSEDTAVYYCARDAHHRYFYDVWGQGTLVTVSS", "T16 sequence (VL, as listed by the source, chain 2 of 2)": "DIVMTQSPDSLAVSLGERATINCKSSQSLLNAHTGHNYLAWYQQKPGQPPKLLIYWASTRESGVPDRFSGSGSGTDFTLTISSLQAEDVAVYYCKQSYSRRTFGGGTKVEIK", "assay": "SPR Carterra avidity, yeast anti-ID", "procedure,_shortened": "as §2"}, "ADI-76361": {"biological_target": "T17, ADI-76361", "T17 construct": "anti-CD3 antibody made in CHO cells, captured by anti-human Fc", "assay": "SPR Carterra avidity, yeast anti-ID", "procedure,_shortened": "as §2"}, "ADI-50024": {"biological_target": "T18, ADI-50024", "T18 construct": "anti-CD3 antibody made in CHO cells, captured by anti-human Fc", "T18 sequence (VH, as listed by the source limits assumed, chain 1 of 2)": "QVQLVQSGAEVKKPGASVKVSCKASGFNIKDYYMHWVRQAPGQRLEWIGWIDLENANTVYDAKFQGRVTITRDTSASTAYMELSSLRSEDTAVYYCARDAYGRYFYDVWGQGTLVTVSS", "assay": "SPR Carterra avidity, yeast anti-ID", "procedure,_shortened": "as §2"}, "ADI-74968": {"biological_target": "T19, ADI-74968", "T19 construct": "pH-dependent anti-CD3 antibody made in CHO cells", "assay": "SPR Carterra avidity, yeast anti-ID", "procedure,_shortened": "as §2"}, "ADI-76359": {"biological_target": "T20, ADI-76359", "T20 construct": "anti-CD3 antibody made in CHO cells, captured by anti-human Fc", "T20 sequence (VH, as listed by the source, chain 1 of 2)": "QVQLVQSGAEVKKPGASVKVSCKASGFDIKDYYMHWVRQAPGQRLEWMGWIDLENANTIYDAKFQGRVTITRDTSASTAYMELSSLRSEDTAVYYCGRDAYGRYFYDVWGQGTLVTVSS", "assay": "SPR Carterra avidity, yeast anti-ID, *koff limit", "procedure,_shortened": "as §2"}, "ADI-67450": {"biological_target": "T21, ADI-67450", "T21 construct": "anti-CD3 antibody made in CHO cells, captured by anti-human Fc", "assay": "SPR Carterra avidity, yeast anti-ID, *koff limit", "procedure,_shortened": "as §2"}, "ADI-74967": {"biological_target": "T22, ADI-74967", "T22 construct": "pH-dependent anti-CD3 antibody made in CHO cells", "assay": "SPR Carterra avidity, yeast anti-ID, *koff limit", "procedure,_shortened": "as §2"}, "ADI-74966": {"biological_target": "T23, ADI-74966", "T23 construct": "pH-dependent anti-CD3 antibody made in CHO cells", "assay": "SPR Carterra avidity, yeast anti-ID, *koff limit", "procedure,_shortened": "as §2"}, "ADI-26909": {"biological_target": "T24, ADI-26909", "T24 construct": "anti-CD3 antibody made in CHO cells, captured by anti-human Fc", "T24 sequence (VH, as listed by the source limits assumed, chain 1 of 2)": "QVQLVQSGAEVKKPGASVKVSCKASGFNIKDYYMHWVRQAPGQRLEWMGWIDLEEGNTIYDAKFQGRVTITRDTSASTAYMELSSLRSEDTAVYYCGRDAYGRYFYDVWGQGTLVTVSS", "assay": "SPR Carterra avidity, yeast anti-ID, *koff limit", "procedure,_shortened": "as §2"}, "ADI-26920 IgG": {"biological_target": "T25, ADI-26920 IgG", "T25 construct": "anti-CD3 IgG", "assay": "SPR Carterra avidity, yeast anti-ID, *koff limit", "procedure,_shortened": "as §2"}, "ADI-26924": {"biological_target": "T26, ADI-26924", "T26 construct": "anti-CD3 antibody made in CHO cells, captured by anti-human Fc", "T26 sequence (VH, as listed by the source, chain 1 of 2)": "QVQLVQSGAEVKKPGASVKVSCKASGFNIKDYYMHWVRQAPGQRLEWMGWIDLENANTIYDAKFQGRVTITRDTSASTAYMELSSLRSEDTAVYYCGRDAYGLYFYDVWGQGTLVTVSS", "assay": "SPR Carterra avidity, yeast anti-ID, *koff limit", "procedure,_shortened": "as §2"}, "ADI-26943": {"biological_target": "T27, ADI-26943", "T27 construct": "anti-CD3 antibody made in CHO cells, captured by anti-human Fc", "T27 sequence (VH, as listed by the source, chain 1 of 2)": "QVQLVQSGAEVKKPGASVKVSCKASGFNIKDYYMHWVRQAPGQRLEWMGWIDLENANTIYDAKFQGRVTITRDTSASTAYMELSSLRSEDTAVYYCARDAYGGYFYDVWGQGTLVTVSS", "T27 sequence (VL, as listed by the source, chain 2 of 2)": "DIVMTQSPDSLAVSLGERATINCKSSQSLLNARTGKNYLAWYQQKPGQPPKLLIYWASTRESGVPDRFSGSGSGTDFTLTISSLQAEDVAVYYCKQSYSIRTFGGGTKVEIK", "assay": "SPR Carterra avidity, yeast anti-ID, *koff limit", "procedure,_shortened": "as §2"}, "ADI-26921 IgG": {"biological_target": "T28, ADI-26921 IgG", "T28 construct": "anti-CD3 IgG", "T28 sequence (VH, as listed by the source limits assumed, chain 1 of 2)": "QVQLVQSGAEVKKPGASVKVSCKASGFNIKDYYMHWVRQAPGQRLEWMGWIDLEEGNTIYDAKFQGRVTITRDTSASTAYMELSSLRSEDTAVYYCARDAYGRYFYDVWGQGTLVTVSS", "assay": "SPR Carterra avidity, yeast anti-ID, *koff limit", "procedure,_shortened": "as §2"}, "ADI-67447": {"biological_target": "T29, ADI-67447", "T29 construct": "anti-CD3 antibody made in CHO cells, captured by anti-human Fc", "T29 sequence (VH, as listed by the source limits assumed, chain 1 of 2)": "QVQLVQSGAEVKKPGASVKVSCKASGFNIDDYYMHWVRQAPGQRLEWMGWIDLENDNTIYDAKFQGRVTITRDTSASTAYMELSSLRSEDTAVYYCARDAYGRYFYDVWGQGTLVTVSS", "assay": "SPR Carterra avidity, yeast anti-ID, *koff limit", "procedure,_shortened": "as §2"}, "ADI-26913 IgG": {"biological_target": "T30, ADI-26913 IgG", "T30 construct": "anti-CD3 IgG", "assay": "SPR Carterra avidity, yeast anti-ID, *koff limit", "procedure,_shortened": "as §2"}, "ADI-67445": {"biological_target": "T31, ADI-67445", "T31 construct": "anti-CD3 antibody made in CHO cells, captured by anti-human Fc", "assay": "SPR Carterra avidity, yeast anti-ID, *koff limit", "procedure,_shortened": "as §2"}, "ADI-76362": {"biological_target": "T32, ADI-76362", "T32 construct": "anti-CD3 antibody made in CHO cells, captured by anti-human Fc", "T32 sequence (VH, as listed by the source, chain 1 of 2)": "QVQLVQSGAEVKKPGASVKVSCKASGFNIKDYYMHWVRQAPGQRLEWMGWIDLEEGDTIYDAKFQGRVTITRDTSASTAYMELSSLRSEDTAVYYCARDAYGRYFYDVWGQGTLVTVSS", "assay": "SPR Carterra avidity, yeast anti-ID, *koff limit", "procedure,_shortened": "as §2"}, "ADI-22523 IgG": {"biological_target": "T33, ADI-22523 IgG", "T33 construct": "anti-CD3 IgG", "assay": "BLI; tip anti-ID IgG, solution ADI-22523 IgG", "procedure,_shortened": "as §1"}}, "data": [{"binder": "ADI-34138 (antibody, V domains shown, anti-ID IgG) VH: QVQLVQSGAEVKKPGSSVKVSCKASGGTFSSYAISWVRQAPGQGLEWMGGIIPIFGTANYAQKFQGRVTITADESTSTAYMELSSLRSEDTAVYYCARGAPNYYGSGGYDDGWFDPWGQGTLVTVSS VL: EIVMTQSPGTLSLSPGERATLSCRASQSVSSSYLAWYQQKPGQAPRLLIYGASNRATGIPDRFSGSGSGTDFTLTISRLEPEDFAVYYCQQAHTALWTFGGGTKVEIK", "values": [{"measurement": "Kd", "setting": "ADI-22523 Fab", "result": 9.69, "unit": "nM"}, {"measurement": "Kd", "setting": "ADI-76360", "result": 57, "unit": "nM"}, {"measurement": "Kd", "setting": "ADI-26919", "result": 33, "unit": "nM"}, {"measurement": "Kd", "setting": "ADI-70330", "result": 45, "unit": "nM"}, {"measurement": "Kd", "setting": "ADI-76357", "result": 17, "unit": "nM"}, {"measurement": "Kd", "setting": "ADI-76358", "result": 29, "unit": "nM"}, {"measurement": "Kd", "setting": "ADI-70327", "result": 160, "unit": "nM"}, {"measurement": "Kd", "setting": "ADI-26916 IgG", "result": 64, "unit": "nM"}, {"measurement": "Kd", "setting": "ADI-26906 IgG", "result": 20, "unit": "nM"}, {"measurement": "Kd", "setting": "ADI-48587", "result": 29, "unit": "nM"}, {"measurement": "Kd", "setting": "ADI-48650", "result": 110, "unit": "nM"}, {"measurement": "binding result", "setting": "ADI-48576", "result": "binds"}, {"measurement": "Kd", "setting": "ADI-70326", "result": 42, "unit": "nM"}, {"measurement": "Kd", "setting": "ADI-74965", "result": 34, "unit": "nM"}, {"measurement": "Kd", "setting": "CTL-62223", "result": 46, "unit": "nM"}, {"measurement": "binding result", "setting": "ADI-48592", "result": "binds"}, {"measurement": "Kd", "setting": "ADI-76361", "result": 21, "unit": "nM"}, {"measurement": "Kd", "setting": "ADI-50024", "result": 19, "unit": "nM"}, {"measurement": "Kd", "setting": "ADI-74968", "result": 29, "unit": "nM"}, {"measurement": "Kd", "setting": "ADI-76359", "result": 9.5, "unit": "nM"}, {"measurement": "Kd", "setting": "ADI-67450", "result": 27, "unit": "nM"}, {"measurement": "Kd", "setting": "ADI-74967", "result": 18, "unit": "nM"}, {"measurement": "Kd", "setting": "ADI-74966", "result": 15, "unit": "nM"}, {"measurement": "Kd", "setting": "ADI-26909", "result": 12, "unit": "nM"}, {"measurement": "Kd", "setting": "ADI-26920 IgG", "result": 10, "unit": "nM"}, {"measurement": "Kd", "setting": "ADI-26924", "result": 16, "unit": "nM"}, {"measurement": "Kd", "setting": "ADI-26943", "result": 22, "unit": "nM"}, {"measurement": "Kd", "setting": "ADI-26921 IgG", "result": 17, "unit": "nM"}, {"measurement": "Kd", "setting": "ADI-67447", "result": 12, "unit": "nM"}, {"measurement": "Kd", "setting": "ADI-26913 IgG", "result": 16, "unit": "nM"}, {"measurement": "Kd", "setting": "ADI-67445", "result": 27, "unit": "nM"}, {"measurement": "Kd", "setting": "ADI-76362", "result": 17, "unit": "nM"}, {"measurement": "Kd", "setting": "ADI-22523 IgG", "result": 0.57, "unit": "nM"}]}]}
